Test [1] concerns the target T1, ITGA2 protein on the surface of human tumor cells (human, UniProt P17301 30-1181).
T1 construct: whole, on cells; Endogenously expressed; the cell line is named under assay or readout; also called Integrin alpha-2; ITGA2-positive HuCCT1 cells
T1 sequence (looked up): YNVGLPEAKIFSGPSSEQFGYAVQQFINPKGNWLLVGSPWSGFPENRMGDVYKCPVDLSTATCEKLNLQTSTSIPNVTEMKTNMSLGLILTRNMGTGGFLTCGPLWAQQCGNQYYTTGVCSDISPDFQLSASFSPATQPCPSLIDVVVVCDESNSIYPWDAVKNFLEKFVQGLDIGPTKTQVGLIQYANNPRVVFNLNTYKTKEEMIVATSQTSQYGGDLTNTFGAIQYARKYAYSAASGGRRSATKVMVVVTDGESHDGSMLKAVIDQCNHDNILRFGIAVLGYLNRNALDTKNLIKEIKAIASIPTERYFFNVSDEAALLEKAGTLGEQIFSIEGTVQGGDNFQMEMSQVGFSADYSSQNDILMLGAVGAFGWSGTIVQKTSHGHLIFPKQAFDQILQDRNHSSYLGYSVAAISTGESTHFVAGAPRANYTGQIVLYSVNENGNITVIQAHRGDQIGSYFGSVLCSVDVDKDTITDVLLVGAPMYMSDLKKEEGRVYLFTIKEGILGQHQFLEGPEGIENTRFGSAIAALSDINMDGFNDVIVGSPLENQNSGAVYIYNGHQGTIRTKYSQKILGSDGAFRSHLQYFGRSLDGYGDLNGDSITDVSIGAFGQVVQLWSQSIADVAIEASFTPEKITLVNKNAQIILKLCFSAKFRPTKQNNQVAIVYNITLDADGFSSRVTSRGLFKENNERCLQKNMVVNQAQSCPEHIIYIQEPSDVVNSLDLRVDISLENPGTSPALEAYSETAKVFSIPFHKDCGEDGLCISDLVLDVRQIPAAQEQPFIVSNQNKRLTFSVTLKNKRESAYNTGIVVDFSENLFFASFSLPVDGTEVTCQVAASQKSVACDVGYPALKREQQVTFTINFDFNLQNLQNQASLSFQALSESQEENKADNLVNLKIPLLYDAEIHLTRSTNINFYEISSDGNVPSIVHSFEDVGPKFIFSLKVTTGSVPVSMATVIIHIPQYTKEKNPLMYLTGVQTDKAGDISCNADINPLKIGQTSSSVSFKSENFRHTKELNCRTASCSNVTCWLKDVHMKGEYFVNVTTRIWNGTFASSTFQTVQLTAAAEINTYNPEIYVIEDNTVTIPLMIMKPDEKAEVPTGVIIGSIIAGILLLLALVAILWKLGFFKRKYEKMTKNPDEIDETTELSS
Description: flow cytometry on HuCCT1 cells. (A flow cytometer gives signals particle by particle.)

The target in the next test is T2, ITGA2-His (UniProt P17301 30-1132, limits assumed).
T2 construct: Coated on the ELISA plate at 2 ug/mL; whole entry P17301 is named; also called ITGA2 protein; not shown: His tag
T2 sequence (looked up): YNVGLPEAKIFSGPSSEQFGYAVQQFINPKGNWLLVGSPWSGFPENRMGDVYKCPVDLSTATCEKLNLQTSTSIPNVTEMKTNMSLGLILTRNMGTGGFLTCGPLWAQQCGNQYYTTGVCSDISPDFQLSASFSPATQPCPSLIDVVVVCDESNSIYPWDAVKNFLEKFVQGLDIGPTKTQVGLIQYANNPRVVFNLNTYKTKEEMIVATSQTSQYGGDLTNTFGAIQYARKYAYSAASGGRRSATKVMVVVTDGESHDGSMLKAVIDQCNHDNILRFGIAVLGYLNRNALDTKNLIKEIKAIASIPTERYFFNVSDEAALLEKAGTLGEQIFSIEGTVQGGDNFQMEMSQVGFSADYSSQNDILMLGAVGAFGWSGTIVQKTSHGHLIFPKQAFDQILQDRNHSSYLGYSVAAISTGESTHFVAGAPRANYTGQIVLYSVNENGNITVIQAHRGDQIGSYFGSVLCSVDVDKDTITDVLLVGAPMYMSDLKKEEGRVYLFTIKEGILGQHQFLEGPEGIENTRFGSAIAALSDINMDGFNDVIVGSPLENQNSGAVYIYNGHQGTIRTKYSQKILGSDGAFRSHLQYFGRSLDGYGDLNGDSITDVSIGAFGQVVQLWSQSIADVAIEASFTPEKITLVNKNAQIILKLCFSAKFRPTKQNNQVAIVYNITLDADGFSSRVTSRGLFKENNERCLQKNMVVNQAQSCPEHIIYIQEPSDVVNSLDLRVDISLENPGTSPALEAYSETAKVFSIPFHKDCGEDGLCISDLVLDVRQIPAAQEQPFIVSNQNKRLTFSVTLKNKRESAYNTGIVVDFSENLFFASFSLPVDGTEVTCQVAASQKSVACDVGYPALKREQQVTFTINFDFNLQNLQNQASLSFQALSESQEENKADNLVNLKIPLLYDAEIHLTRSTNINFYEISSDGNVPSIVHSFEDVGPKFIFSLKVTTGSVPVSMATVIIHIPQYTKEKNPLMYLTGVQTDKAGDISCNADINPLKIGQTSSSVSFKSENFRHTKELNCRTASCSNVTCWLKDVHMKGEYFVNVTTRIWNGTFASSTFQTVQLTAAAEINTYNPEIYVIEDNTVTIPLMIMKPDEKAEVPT
The test is described as follows: ELISA, plate coated with 2 ug/mL ITGA2-His, anti-human IgG-Fc-HRP detection. In general terms: ELISA stands for enzyme-linked immunosorbent assay.

Test [2] deals with T1, ITGA2 protein on the surface of human …. Description: cell-based or functional assay.

Where a chain is given by its changes, count along the chain named.

B1: Vatelizumab (antibody, V domains shown)
VH: QVQLQESGPGLVKPSETLSLTCTVSGFSLTNYGIHWIRQPPGKGLEWLGVIWARGFTNYNSALMSRLTISKDNSKNQVSLKLSSVTAADTAVYYCARANDGVYYAMDYWGQGTLVTVSS
VL: DFVMTQSPAFLSVTPGEKVTITCSAQSSVNYIHWYQQKPDQAPKKLIYDTSKLASGVPSRFSGSGSGTDYTFTISSLEAEDAATYYCQQWTTNPLTFGQGTKVEIK
In general, EC50 refers to the concentration at which the effect is half-maximal. Low values mean a more potent agent, high ones a less potent agent. Consider B1, for which the EC50 in test [1] came out at 0.78 nM; with ITGA2-His, 0.008 nM.

B2: FS002-A226-H3L4-vcMMAE (antibody, human IgG1, kappa, V domains shown)
VH: QLQLVQSGAEVKKPGASVKVSCKASGYTFTDYEIHWVRQAPGQGLEWIGAIDPETGGTNYNQKFNDRVTLTADTSISTAYMELSRLRSDDTAVYYCSRSGYYVSNYESYAMDYWGQGTTVTVSS
VL: DIQLTQSPSSLSASVGDRVTITCRASQDIKSYLSWYQQKPGKAPKLLIYDTSNLASGVPSRFSGSGSGTDFTLTISSLQPEDFATYYCQQWSSYPFTFGGGTKLEIKR
modifications: vc-MMAE, attachment residues not stated; vc-MMAE (mc-vc-PAB-MMAE) conjugated after TCEP reduction, DAR 3.8 per antibody; attachment residues not stated
As for B2, in test [2], the “A431 cell killing IC50” value was determined as 0.063 nM.

B3: FS002-A153-H5L5-vcMMAE (antibody, human IgG1, kappa, V domains shown)
VH: QVQLVQSGAEVKKPGASVKVSCKASGYTFTDYEMHWVRQAPGQGLEWMGTIDPETGGTTYAQKFQGRVTMTADTSISTAYMELSRLRSDDTAVYYCARSGYYVSSYESYAMDYWGQGTTVTVSS
VL: EIVMTQSPPTLSLSPGERVTMSCRSSQSLLNSGNQKNYLTWYQQKPGQAPRLLIYGASTRESGVPARFSGSGSGTDFTLTISSLQPEDFAVYYCQNDYSYPFTFGGGTKLEIKR
modifications: vc-MMAE, attachment residues not stated; vc-MMAE (mc-vc-PAB-MMAE) conjugated after TCEP reduction, DAR 4.0 per antibody; attachment residues not stated
In the case of B3, in test [2], the “A431 cell killing IC50” value came to 0.073 nM.

B4: Humanized antibody FS002-A208-H4L4 (antibody, human IgG1, kappa, V domains shown)
VH: B2 VH with L2V, N65Q, D66G
VL: DIQMTQSPSSLSASVGDRVTITCRASQNVGTNVAWYQQKPEKAPKSLIYSASYRFSGVPSRFSGSGSGTDFTLTISSLQPEDFATYYCQQYNIYPLSFGGGTKLELKR
notes: Humanized IgG1 kappa
Consider B4, for which the concentration giving a half-maximal response (EC50) stood at 0.6 nM in test [1] and 0.017 nM with ITGA2-His.

B5: Humanized antibody FS002-A226-H4L3 (antibody, human IgG1, kappa, V domains shown)
VH: B2 VH with L2V, N65Q, D66G
VL: B2 VL with L4I, L11M, R24K, F71Y
notes: Humanized IgG1 kappa
As to B5, the figures for the EC50 (in test [1]; with ITGA2-His) were 0.533 nM and 0.024 nM, respectively.

B6: FS002-A208-H4L4-vcMMAE (antibody, human IgG1, kappa, V domains shown)
VH: B2 VH with L2V, N65Q, D66G
VL: B4 VL
modifications: vc-MMAE, attachment residues not stated; vc-MMAE (mc-vc-PAB-MMAE) conjugated after TCEP reduction, DAR 4.1 per antibody; attachment residues not stated
With B6, the “A431 cell killing IC50” value in test [2] amounted to 0.051 nM.

B7: Humanized antibody FS002-A103-H4L3 (antibody, human IgG1, kappa, V domains shown)
VH: B3 VH with T50V, A61N, M70L, A97S
VL: EIVMTQSPPTMSMSPGERVTLSCKASENVGTYVSWYQQKPGQAPRLLIYGASTRESGVPARFSGSGSGTDFTLTISSLQPEDFAVYYCQNDYSYPFTFGGGTKLEIKR
notes: Humanized IgG1 kappa
For the molecule B7, the EC50 in test [1] was found to be 0.08 nM; with ITGA2-His, 0.006 nM.

B8: FS002-A208-H5L4-vcMMAE (antibody, human IgG1, kappa, V domains shown)
VH: B3 VH with M34I, T50A, T59N, A97S, S105N
VL: B4 VL
modifications: vc-MMAE, attachment residues not stated; vc-MMAE (mc-vc-PAB-MMAE) conjugated after TCEP reduction, DAR 4.0 per antibody; attachment residues not stated
For B8, in test [2], the “A431 cell killing IC50” value came out at 0.083 nM.

B9: Humanized antibody FS002-A103-H4L2 (antibody, human IgG1, kappa, V domains shown)
VH: B3 VH with T50V, A61N, M70L, A97S
VL: B7 VL with P9K, A60D
notes: Humanized IgG1 kappa
As to B9, the concentration giving a half-maximal response (EC50) in test [1] worked out at 0.127 nM; with ITGA2-His it was 0.006 nM.

B10: Humanized antibody FS002-A226-H3L4 (antibody, human IgG1, kappa, V domains shown)
VH: B2 VH
VL: B2 VL
notes: Humanized IgG1 kappa
B10: the EC50 came to 0.28 nM in test [1] and 0.023 nM with ITGA2-His.

B11: Humanized antibody FS002-A208-H3L4 (antibody, human IgG1, kappa, V domains shown)
VH: B2 VH with L2V, T74K
VL: B4 VL
notes: Humanized IgG1 kappa
Consider B11, for which the concentration for a half-maximal effect (EC50) was 0.587 nM in test [1] and 0.022 nM with ITGA2-His.

B12: Humanized antibody FS002-A103-H4L4 (antibody, human IgG1, kappa, V domains shown)
VH: B3 VH with T50V, A61N, M70L, A97S
VL: B7 VL with M11L, M13L, K24R, V58I
notes: Humanized IgG1 kappa
For the molecule B12, the EC50 in test [1] stood at 0.3 nM; with ITGA2-His, 0.01 nM.

B13: Humanized antibody FS002-A226-H5L3 (antibody, human IgG1, kappa, V domains shown)
VH: B3 VH with M34I, T50A, T59N, A97S, S105N
VL: B2 VL with L4I, L11M, R24K, F71Y
notes: Humanized IgG1 kappa
With B13, the concentration for a half-maximal effect (EC50) in test [1] is 0.58 nM; with ITGA2-His, 0.023 nM.

B14: Humanized antibody FS002-A226-H5L4 (antibody, human IgG1, kappa, V domains shown)
VH: B3 VH with M34I, T50A, T59N, A97S, S105N
VL: B2 VL
notes: Humanized IgG1 kappa
Regarding B14, the EC50 in test [1] came to 0.647 nM; with ITGA2-His, 0.022 nM.

B15: Humanized antibody FS002-A208-H5L4 (antibody, human IgG1, kappa, V domains shown)
VH: B3 VH with M34I, T50A, T59N, A97S, S105N
VL: B4 VL
notes: Humanized IgG1 kappa
Turning to B15, the EC50 in test [1] came out at 0.627 nM; in the test with ITGA2-His it was 0.018 nM.

B16: Chimeric mouse antibody FS002-A153 (antibody, human IgG1, kappa, V domains shown)
VH: QVQLQQSGAELVRPGASVTLSCKASGYTFTDYEMHWVKQTPVHGLEWIGTIDPETGGTTYNQKFNDKATLTADKSSSTAYMDLRSLTSEDSAVYYCSRSGYYVSSYESYAMDYWGQGTSVTVSS
VL: DIVMTQSPSSLTVTAGEKVTMSCKSSQSLLNSGNQKNYLTWYQQKPGQPPKLLIYGASTRESGVPDRFTGSGSGTDFTLTISSVQAEDLAVYYCQNDYSYPFTFGSGTKLEIKR
notes: Chimeric
With B16, the values for the EC50 (in test [1]; with ITGA2-His) were 0.333 nM and 0.008 nM, respectively.

B17: Chimeric mouse antibody FS002-A208 (antibody, human IgG1, kappa, V domains shown)
VH: B16 VH with M34I, T50A, T59N, S105N
VL: DIVMTQSQKFMSTSVGDRVSVTCKASQNVGTNVAWYQQKPGQSPKTLIYSASYRFSGVPDRFTGSGSGTDFTLTINNVQSEDLADYFCQQYNIYPLSFGAGTKLELKR
notes: Chimeric
For the molecule B17, the figures for the EC50 (in test [1]; in the test with ITGA2-His) were 0.76 nM and 0.02 nM, respectively.

B18: Chimeric mouse antibody FS002-A226 (antibody, human IgG1, kappa, V domains shown)
VH: B16 VH with V2L, M34I, T50A, T59N, S105N
VL: DIKITQSPSSMYASLGERVTITCKASQDIKSYLSWYQQKPGSSPRLLIYDTSNLASGVPVRFSGRGSGTSYSLTISRMEAEDAATYYCQQWSSYPFTFGSGTKLEIKR
notes: Chimeric
Turning to B18, the EC50 in test [1] turned out to be 0.58 nM; in the test with ITGA2-His, 0.018 nM.
